Values quoted from earlier work, collected in patent publication US20200069786A1, “COMPOSITION AND PROCESS FOR PREPARING VACCINE” (TREOS BIO ZRT., priority 2018, published 2020).
Where two headings read alike, the source gives them in different places.

Test system: TSA
[1] = TSA expression rate in Cervical cancer
[2] = TSA expression rate in Esophageal
[3] = TSA expression rate in MELANOMA
[4] = TSA expression rate in GASTRIC cancer
[5] = TSA expression rate in PROSTATE cancer

Row | Molecule | TSA Expression Rate (ER) (BRAIN) | TSA Expression Rate (ER) (LUNG) | TSA Expression Rate (ER) (OVARIAN) | TSA Expression Rate (ER) (PANCREATIC) | Expression Rate (ER) % [1] | Expression Rate (ER) % [2] | Expression Rate (ER) % [3] | TSA Expression Rate (ER) (HCC) | Expression Rate (ER) % (TSA expression rate in CRC) | Expression Rate (ER) % [4] | Expression Rate (ER) % (TSA expression rate in HEAD and NECK) | TSA Expression Rate (ER) (BREAST) | Expression Rate (ER) % (TSA expression rate in Kidney) | Expression Rate (ER) % (TSA expression rate in LUNG cancer) | Expression Rate (ER) % [5]
1 | KIF20A (protein, UniProt O95235 2-890, looked up) Kinesin-like protein KIF20A: SQGILSPPAGLLSDDDVVVSPMFESTAADLGSVVRKNLLSDCSVVSTSLEDKQQVPSEDSMEKVKVYLRVRPLLPSELERQEDQGCVRIENVETLVLQAPKDSFALKSNERGIGQATHRFTFSQIFGPEVGQASFFNLTVKEMVKDVLKGQNWLIYTYGVTNSGKTHTIQGTIKDGGILPRSLALIFNSLQGQLHPTPDLKPLLSNEVIWLDSKQIRQEEMKKLSLLNGGLQEEELSTSLKRSVYIESRIGTSTSFDSGIAGLSSISQCTSSSQLDETSHRWAQPDTAPLPVPANIRFSIWISFFEIYNELLYDLLEPPSQQRKRQTLRLCEDQNGNPYVKDLNWIHVQDAEEAWKLLKVGRKNQSFASTHLNQNSSRSHSIFSIRILHLQGEGDIVPKISELSLCDLAGSERCKDQKSGERLKEAGNINTSLHTLGRCIAALRQNQQNRSKQNLVPFRDSKLTRVFQGFFTGRGRSCMIVNVNPCASTYDETLHVAKFSAIASQLVHAPPMQLGFPSLHSFIKEHSLQVSPSLEKGAKADTGLDDDIENEADISMYGKEELLQVVEAMKTLLLKERQEKLQLEMHLRDEICNEMVEQMQQREQWCSEHLDTQKELLEEMYEEKLNILKESLTSFYQEEIQERDEKIEELEALLQEARQQSVAHQQSGSELALRRSQRLAASASTQQLQEVKAKLQQCKAELNSTTEELHKYQKMLEPPPSAKPFTIDVDKKLEEGQKNIRLLRTELQKLGESLQSAERACCHSTGAGKLRQALTTCDDILIKQDQTLAELQNNMVLVKLDLRKKAACIAEQYHTVLKLQGQVSAKKRLGTNQENQQPNQQPPGKKPFLRNLLPRTPTCQSSTDCSPYARILRSRRSPLLKSGPFGKKY | 58% | 95% | 65% | 63% | 35% | 15% | 64% | – | – | – | – | – | – | – | –
2 | CCDC110 (protein, UniProt Q8TBZ0 1-833, looked up) Coiled-coil domain-containing …: MSPEKQHREEDEVDSVLLSASKILNSSEGVKESGCSDTEYGCIAESENQIQPQSALKVLQQQLESFQALRMQTLQNVSMVQSEISEILNKSIIEVENPQFSSEKNLVFGTRIEKDLPTENQEENLSMEKSHHFEDSKTLHSVEEKLSGDSVNSLPQSVNVPSQIHSEDTLTLRTSTDNLSSNIIIHPSENSDILKNYNNFYRFLPTAPPNVMSQADTVILDKSKITVPFLKHGFCENLDDICHSIKQMKEELQKSHDGEVALTNELQTLQTDPDVHRNGKYDMSPIHQDKMNFIKEENLDGNLNEDIKSKRISELEALVKKLLPFRETVSKFHVHFCRKCKKLSKSEMHRGKKNEKNNKEIPITGKNITDLKFHSRVPRYTLSFLDQTKHEMKDKERQPFLVKQGSIISENEKTSKVNSVTEQCVAKIQYLQNYLKESVQIQKKVMELESENLNLKSKMKPLIFTTQSLIQKVETYEKQLKNLVEEKSTIQSKLSKTEEYSKECLKEFKKIISKYNVLQGQNKTLEEKNIQLSLEKQQMMEALDQLKSKEHKTQSDMAIVNNENNRMSIEMEAMKTNILLIQDEKEMLEKKTHQLLKEKSSLGNELKESQLEIIQLKEKERLAKTEQETLLQIIETVKDEKLNLETTLQESTAARQIMEREIENIQTYQSTAEENFLQEIKNAKSEASIYKNSLSEIGKECEMLSKMVMETKTDNQILKEELKKHSQENIKFENSISRLTEDKILLENYVRSIENERDTLEFEMRHLQREYLSLSDKICNQHNDPSKTTYISRREKFHFDNYTHEDTSSPQSRPLASDLKGYFKVKDRTLKHH | – | 50% | – | 100% | – | – | 60% | 50% | 50% | 100% | 67% | – | – | – | –
3 | PIWIL1 (protein, UniProt Q96J94 1-861, looked up) Piwi-like protein 1: MTGRARARARGRARGQETAQLVGSTASQQPGYIQPRPQPPPAEGELFGRGRQRGTAGGTAKSQGLQISAGFQELSLAERGGRRRDFHDLGVNTRQNLDHVKESKTGSSGIIVRLSTNHFRLTSRPQWALYQYHIDYNPLMEARRLRSALLFQHEDLIGKCHAFDGTILFLPKRLQQKVTEVFSKTRNGEDVRITITLTNELPPTSPTCLQFYNIIFRRLLKIMNLQQIGRNYYNPNDPIDIPSHRLVIWPGFTTSILQYENSIMLCTDVSHKVLRSETVLDFMFNFYHQTEEHKFQEQVSKELIGLVVLTKYNNKTYRVDDIDWDQNPKSTFKKADGSEVSFLEYYRKQYNQEITDLKQPVLVSQPKRRRGPGGTLPGPAMLIPELCYLTGLTDKMRNDFNVMKDLAVHTRLTPEQRQREVGRLIDYIHKNDNVQRELRDWGLSFDSNLLSFSGRILQTEKIHQGGKTFDYNPQFADWSKETRGAPLISVKPLDNWLLIYTRRNYEAANSLIQNLFKVTPAMGMQMRKAIMIEVDDRTEAYLRVLQQKVTADTQIVVCLLSSNRKDKYDAIKKYLCTDCPTPSQCVVARTLGKQQTVMAIATKIALQMNCKMGGELWRVDIPLKLVMIVGIDCYHDMTAGRRSIAGFVASINEGMTRWFSRCIFQDRGQELVDGLKVCLQAALRAWNSCNEYMPSRIIVYRDGVGDGQLKTLVNYEVPQFLDCLKSIGRGYNPRLTVIVVKKRVNTRFFAQSGGRLQNPLPGTVIDVEVTRPEWYDFFIVSQAVRSGSVSPTHYNVIYDNSGLKPDHIQRLTYKLCHIYYNWPGVIRVPAPCQYAHKLAFLVGQSIHREPNLSLSNRLYYL | 76% | – | 68% | 71% | 83% | 70% | – | 40% | 48% | 76% | – | 100% | 52% | 15% | 4%
4 | CTCFL (protein, UniProt Q8NI51 1-663, looked up) Transcriptional repressor …: MAATEISVLSEQFTKIKELELMPEKGLKEEEKDGVCREKDHRSPSELEAERTSGAFQDSVLEEEVELVLAPSEESEKYILTLQTVHFTSEAVELQDMSLLSIQQQEGVQVVVQQPGPGLLWLEEGPRQSLQQCVAISIQQELYSPQEMEVLQFHALEENVMVASEDSKLAVSLAETTGLIKLEEEQEKNQLLAERTKEQLFFVETMSGDERSDEIVLTVSNSNVEEQEDQPTAGQADAEKAKSTKNQRKTKGAKGTFHCDVCMFTSSRMSSFNRHMKTHTSEKPHLCHLCLKTFRTVTLLRNHVNTHTGTRPYKCNDCNMAFVTSGELVRHRRYKHTHEKPFKCSMCKYASVEASKLKRHVRSHTGERPFQCCQCSYASRDTYKLKRHMRTHSGEKPYECHICHTRFTQSGTMKIHILQKHGENVPKYQCPHCATIIARKSDLRVHMRNLHAYSAAELKCRYCSAVFHERYALIQHQKTHKNEKRFKCKHCSYACKQERHMTAHIRTHTGEKPFTCLSCNKCFRQKQLLNAHFRKYHDANFIPTVYKCSKCGKGFSRWINLHRHSEKCGSGEAKSAASGKGRRTRKRKQTILKEATKGQKEAAKGWKEAANGDEAAAEEASTTKGEQFPGEMFPVACRETTARVKEEVDEGVTCEMLLNTMDK | 9% | 36% | 82% | 29% | 32% | 56% | 27% | 55% | 80% | – | – | 74% | – | – | 98%
